Values of other authors, collected in patent US20070276019A1, “Haloalkyl Containing Compounds as Cysteine Protease Inhibitors” (Axys Pharmaceuticals, Inc., priority 2003, published 2007).

Conditions: clinical trials

**Q.** For “OKT3: murine monoclonal antibody directed towards CD-3 domain of activated T-cells”, which “patients administered OKT3 that produce antibodies versus the therapy” value is on record?
**A.** 20-40%
